Results from PMC4404995.

Substrate: CC(=O)c1ccc(O[C@@H]2O[C@H](CO)[C@@H](O)[C@H](O)[C@H]2O)cc1
Assay: LC-MS assay of aglycon release
Format: biochemical, Picea glauca
Details: 0.01–2.0 mM picein, 20 mM MES-KOH, pH 6, 37°C, 1 h

B1: PgβGLU-1 (Picea glauca) (protein)
chain: TSPDLGRSSFPKGFKFGAGSSAYQDEGAALEGGKGPSIWDTFSHIQGKIEDGKNGDVAVDQYHRYKEDVRHLKYMGMDLYRFSISWSRIFPQGSPRHGGVNEEGITYYNNLINELLKNGMEPFVTLYHWDMPQALEDEYGGFRSQRVVEDIGTFAEECFRAFGDRVKYWTTINEPLTFTLYGYDLGIHAPGRCSPGFGNCTAGNSATEPYIVTHNMLLAHSAAVKTYRTKYQGKQKGSIGISLVVNWMVPYSNSLLDQEATQRAIDFRIGWFLDPLTSGKYPDSMRSLVGARLPRFSSEEAKDLKGSFDFLGYNYYQTYFTVNNPTPQNSLNTDYVLDAQANISQQVNGVYVGSSEGVSSFRSYPAGLREVINYTKHRYSNPPIYITETGYGDFDNGTTPLEEALQDSGRVEYYSKHLSSLLEAIREGADVRGYVVWSFLDGFEWASGYDYRFGLYYVDYNDNLKRYPRESANWFRNVLKS
  Km: 1280 ± 530 µM
